Assay results published in paper PMC5691081.

Molecular target: GST-DIAPH3-NT
Assay: GST pull-down with immunoblot quantification
Settings: n = 3, parent: est. 1.0, read off a plot

ratio to parent | ratio to parent (p = 0.0072 vs wt) | Substance
0.82 | – | MBP-anillin (1–151) wild type (from UniProt Q9NQW6) Q42A
– | 0.03 | MBP-anillin (1–151) wild type (from UniProt Q9NQW6) R41A; Q42A; P43A; L44A

Second part, the substance before the results:

Substance | ratio to parent | ratio to parent (p = 0.0072 vs wt)
MBP-anillin (1–151) wild type (from UniProt Q9NQW6) K38A; R39A | 0.94 | –
MBP-anillin (1–151) wild type (from UniProt Q9NQW6) P43A; L44A | 0.38 | –
MBP-anillin (1–151) wild type (from UniProt Q9NQW6) R41A | 0.59 | –
